These results are taken from paper PMC6586363.

This assay deals with recombinant human PKM2, wild type (human) (UniProt P14618). Briefly: native gel or EMSA; blue native gel electrophoresis of recombinant PKM2 (WT or mutant) or PKM1, alone or with FBP and/or scFv 5; resolves dimer and tetramer forms. (In general: Mobility shift assays separate free from complexed probe on a gel.)

Sequence of recombinant human PKM2, wild type, P14618 1-531 (enzyme; other documents disagree on this pair) (P14618 whole entry): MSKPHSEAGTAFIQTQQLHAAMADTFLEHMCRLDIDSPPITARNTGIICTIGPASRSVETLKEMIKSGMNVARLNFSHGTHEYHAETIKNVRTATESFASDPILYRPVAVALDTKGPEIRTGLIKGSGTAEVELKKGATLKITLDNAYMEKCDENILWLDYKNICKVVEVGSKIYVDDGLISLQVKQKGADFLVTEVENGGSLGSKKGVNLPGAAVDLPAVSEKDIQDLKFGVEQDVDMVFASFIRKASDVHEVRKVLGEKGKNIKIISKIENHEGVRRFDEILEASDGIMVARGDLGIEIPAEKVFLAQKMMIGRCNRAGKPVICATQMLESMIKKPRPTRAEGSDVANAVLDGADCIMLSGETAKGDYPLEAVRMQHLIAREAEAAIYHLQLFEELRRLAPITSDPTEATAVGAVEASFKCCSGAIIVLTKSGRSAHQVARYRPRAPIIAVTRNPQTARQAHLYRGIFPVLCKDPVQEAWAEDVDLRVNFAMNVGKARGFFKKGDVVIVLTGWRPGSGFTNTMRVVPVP

In the case of “recombinant human PKM2, wild type, P14618 1-531 (enzyme; other documents disagree on this pair)”, the stoichiometry N stood at 2.

As usually defined, the stoichiometry N is the number of molecules, sites or subunits per partner or assembly.
